{"source": "patent US20240245811A1", "about": "“ALPHA RA[…] ANALOGUE AND USE THEREOF IN METHODS OF TREATING CCKB RECEPTOR POSITIVE DISEASES” (Paul Scherrer Institut, priority 2020, published 2024)", "key": {"A431/CCKBR tumors [1]": {"test_system": "A431/CCKBR tumors", "assay": "SPECT/CT imaging with 111In-PP-F11N after 225Ac-PP-F11N treatment", "type": "in vivo, nude mice", "settings": "13 MBq i.v., 2 h after injection, tumor-free mice after 45 or 60 kBq 225Ac-PP-F11N", "source_text": "Image reconstruction and processing is accomplished by using VivoQuant 3.0 Patch1 software."}, "A431/CCKBR cells": {"test_system": "A431/CCKBR cells", "assay": "Cell proliferation assay (CellTiter 96 AQueous)", "type": "cell-based, human", "settings": "24 h", "protocol": "Human epidermoid carcinoma A431 stable cell line that overexpress CCKBR, generated as previously described (Aloj et al., J Nucl Med 2004, 45(3), 485-94) can be cultured in DMEM, supplemented with 10% FBS (Bio Concept, Switzerland), 2 mM glutamine and antibiotics (0.1 mg/mL streptomycin, 100 IU penicillin) at 37° C. in a humidified incubator containing 5% CO2.\nFor the cell proliferation assay, 4×10^3 cells per well are seeded on the 96-well plates.\nCell proliferation can be analyzed using CellTiter 96 AQueous Non-Radioactive Cell Proliferation Kit (Promega AG, Switzerland) according to the manufacturer's instruction. Absorbance of formazan product is measured at 570 nm with a reference of 650 nm using a MicroPlate Reader (PerkinElmer, Switzerland). The absorbance of the control (untreated) cells is set as 100% cell viability. […] The assay is performed in triplicate."}, "A431/CCKBR tumors [2]": {"test_system": "A431/CCKBR tumors", "assay": "Therapy study in A431/CCKBR tumor-bearing nude mice", "type": "in vivo", "settings": "30-120 kBq, all groups", "protocol": "For the therapy study, nude mice are subcutaneously injected with 5×10^6 A431/CCKBR cells on the left shoulder. […] The control group is injected with 100 μL PBS. Tumor diameters and mice weight are recorded daily during the working days. Tumor volume is calculated by using the formula formula V=(W^2×L)/2 (Faustino-Rocha et al. Lab Anim. 2013, 42(6), 217-224). Nude mice are sacrificed when the tumor volume exceeded 1.5 cm^3. The data are obtained from two sets of experiments including control, 30, 45, 60 kBq and control, 60, 90, 120 kBq treatment groups.\nGraphPad Prism 7.00 for Windows was used for all statistical analysis. […] Log-rank (Mantel-Cox) test and Gehan-Breslow-Wilcoxon test are performed to compare different survival curves of treatment groups with the control group. Endpoints are defined as death in survival curves. Values of P<0.05 are considered statistically significant. The results are reported as mean±standard deviation of at least three independent replicates."}, "[3]": {"assay": "Histological (HE) analysis of kidney and stomach after treatment", "type": "in vivo, nude mice", "settings": "60 and 120 kBq groups, organs dissected between day 34 and 49"}, "[4]": {"assay": "Biodistribution study in A431/CCKBR xenografted nude mice", "type": "in vivo", "settings": "female, CD-1 nude, mouse, iv, total radioactivity; for tissue uptake at 4 h: 4 h post injection; for tissue uptake at 24 h: 24 h post injection; for tissue uptake at 48 h: 48 h post injection; for tissue uptake at 168 h: 7 days post injection", "protocol": "(§1) 1, 4, 24, 48 h and 7 days after administration of radiolabeled peptides, mice are sacrificed and the post mortem dissected tumors and organs are weighted and their activity is measured on a gamma counter (Packard Cobra II Auto Gamma, PerkinElmer, Switzerland)."}, "A431/CCKBR tumors [5]": {"test_system": "A431/CCKBR tumors", "assay": "Biodistribution study in A431/CCKBR xenografted nude mice", "type": "in vivo", "protocol": "as §1"}, "CCKBR": {"target": "T1, CCKBR (Homo sapiens, UniProt P32239)", "T1 sequence (P32239 1-447)": "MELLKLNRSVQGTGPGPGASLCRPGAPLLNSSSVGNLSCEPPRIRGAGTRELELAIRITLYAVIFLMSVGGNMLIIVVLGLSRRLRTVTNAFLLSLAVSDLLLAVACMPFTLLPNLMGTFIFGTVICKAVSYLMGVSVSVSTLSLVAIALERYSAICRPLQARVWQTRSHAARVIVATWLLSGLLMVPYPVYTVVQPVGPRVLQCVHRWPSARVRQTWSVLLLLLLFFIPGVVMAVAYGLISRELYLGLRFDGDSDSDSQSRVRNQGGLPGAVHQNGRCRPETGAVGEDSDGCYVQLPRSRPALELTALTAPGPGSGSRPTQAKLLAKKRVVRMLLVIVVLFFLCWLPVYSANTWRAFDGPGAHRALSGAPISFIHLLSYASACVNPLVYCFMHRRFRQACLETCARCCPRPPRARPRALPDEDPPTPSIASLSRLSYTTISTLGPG", "settings": "cited from earlier work"}, "[6]": {"settings": "38 kBq, stomach, read-out: activity in stomach"}, "[7]": {"settings": "tumor (A431/CCKBR xenograft), 38 kBq, tumor, read-out: tumor uptake"}}, "note": "Where two headings read alike, the source gives them in different places.", "data": [{"smiles": "CCCC[C@H](NC(=O)[C@H](Cc1c[nH]c2ccccc12)NC(=O)CNC(=O)[C@H](Cc1ccc(O)cc1)NC(=O)[C@H](C)NC(=O)[C@@H](CCC(=O)O)NC(=O)[C@@H](CCC(=O)O)NC(=O)[C@@H](CCC(=O)O)NC(=O)[C@@H](CCC(=O)O)NC(=O)[C@@H](CCC(=O)O)NC(=O)[C@@H](CCC(=O)O)NC(=O)CN1CCN(CC(=O)O)CCN(CC(=O)O)CCN(CC(=O)O)CC1)C(=O)N[C@@H](CC(=O)O)C(=O)N[C@@H](Cc1ccccc1)C(N)=O", "note": "[^111In-PP-F11N, metal not drawn]", "values": [{"measurement": "location of radioactive signals on SPECT/CT", "setting": "A431/CCKBR tumors [1]", "value": "only detected in the excretion organs including kidneys and bladder"}]}, {"smiles": "CCCC[C@H](NC(=O)[C@H](Cc1c[nH]c2ccccc12)NC(=O)CNC(=O)[C@H](Cc1ccc(O)cc1)NC(=O)[C@H](C)NC(=O)[C@@H](CCC(=O)O)NC(=O)[C@@H](CCC(=O)O)NC(=O)[C@@H](CCC(=O)O)NC(=O)[C@@H](CCC(=O)O)NC(=O)[C@@H](CCC(=O)O)NC(=O)[C@@H](CCC(=O)O)NC(=O)CN1CCN(CC(=O)O)CCN(CC(=O)O)CCN(CC(=O)O)CC1)C(=O)N[C@@H](CC(=O)O)C(=O)N[C@@H](Cc1ccccc1)C(N)=O", "note": "[^225Ac-PP-F11N, metal not drawn]", "values": [{"measurement": "activity level at maximum cytotoxic effect (0% of cell viability)", "setting": "A431/CCKBR cells", "value": 100, "unit": "kBq/mL"}, {"measurement": "body weight and cytotoxicity symptoms during the treatment", "setting": "A431/CCKBR tumors [2]", "value": "no body weight losses or other cytotoxicity symptoms"}, {"measurement": "HE stains of kidney and stomach versus control", "setting": "[3]", "value": "no signs of acute radiation toxicity"}, {"measurement": "tissue uptake at 4 h", "setting": "[4]; 38 kBq, kidney, read-out: accumulation in the kidney", "value": 4.2, "unit": "%ID/g"}, {"measurement": "tissue uptake at 1 h", "setting": "[4]; 38 kBq, kidney, start of the first four hours (1 h post injection), read-out: accumulation in the kidney", "value": 8.1, "unit": "%ID/g"}, {"measurement": "tissue uptake", "setting": "[4]; 38 kBq, liver and bone, all analyzed time points, read-out: non-specific uptake in the liver and bone", "value": "< 2", "unit": "%ID/g"}, {"measurement": "tissue uptake at 1 h", "setting": "[4]; 38 kBq, stomach, 1 h post injection, read-out: activity in stomach", "value": 1.5, "unit": "%ID/g"}, {"measurement": "tissue uptake at 4 h", "setting": "[4]; [6]", "value": 1.3, "unit": "%ID/g"}, {"measurement": "tissue uptake at 24 h", "setting": "[4]; [6]", "value": 1.2, "unit": "%ID/g"}, {"measurement": "tissue uptake at 48 h", "setting": "[4]; [6]", "value": 0.8, "unit": "%ID/g"}, {"measurement": "tissue uptake at 168 h", "setting": "[4]; [6]", "value": 0.3, "unit": "%ID/g"}, {"measurement": "tissue uptake at 4 h", "setting": "[4]; [7]", "value": 11.2, "unit": "%ID/g"}, {"measurement": "tissue uptake at 24 h", "setting": "[4]; [7]", "value": 7.2, "unit": "%ID/g"}, {"measurement": "tissue uptake at 48 h", "setting": "[4]; [7]", "value": 5.7, "unit": "%ID/g"}, {"measurement": "tissue uptake at 168 h", "setting": "[4]; [7]", "value": 4.5, "unit": "%ID/g"}, {"measurement": "tissue uptake at 1 h", "setting": "[4]; tumor (A431/CCKBR xenograft), tumor, 1 h post injection, 38 kBq i.v., read-out: tumor uptake", "value": 13, "unit": "%ID/g"}, {"measurement": "tumor-to-kidney and tumor-to-stomach ratios", "setting": "A431/CCKBR tumors [5]; at analyzed time points", "value": "excellent"}, {"measurement": "body or organ weights, general health or anatomy", "setting": "A431/CCKBR tumors [5]; biodistribution study, 38 kBq", "value": "no significant differences in body or organ weights, general health or anatomy"}, {"measurement": "activity level in the kidney", "setting": "A431/CCKBR tumors [5]; kidney, 1 week post injection", "value": 1.2, "unit": "%"}, {"measurement": "activity level in the kidney", "setting": "A431/CCKBR tumors [5]; kidney, 48 h post injection", "value": 3.8, "unit": "%"}, {"measurement": "decrease in accumulation in the kidney", "setting": "A431/CCKBR tumors [5]; kidney, within the first four hours", "value": 50, "unit": "%"}]}, {"smiles": "CCCC[C@H](NC(=O)[C@H](Cc1c[nH]c2ccccc12)NC(=O)CNC(=O)[C@H](Cc1ccc(O)cc1)NC(=O)[C@H](C)NC(=O)[C@@H](CCC(=O)O)NC(=O)[C@@H](CCC(=O)O)NC(=O)[C@@H](CCC(=O)O)NC(=O)[C@@H](CCC(=O)O)NC(=O)[C@@H](CCC(=O)O)NC(=O)[C@@H](CCC(=O)O)NC(=O)CN1CCN(CC(=O)O)CCN(CC(=O)O)CCN(CC(=O)O)CC1)C(=O)N[C@@H](CC(=O)O)C(=O)N[C@@H](Cc1ccccc1)C(N)=O", "note": "[metal not drawn]", "values": [{"measurement": "tumor uptake and kidney accumulation", "setting": "CCKBR; WO 2015/067473 A1", "value": "good tumor uptake as well as low accumulation in the kidneys"}, {"measurement": "accumulation in healthy tissues", "setting": "CCKBR; recent studies (Sauter 2019, Rottenburger 2020)", "value": "can accumulate in healthy tissues (i.e. in the stomach)"}]}]}
